Reference: patent US20240352438A1, “MEANS AND METHODS FOR DETOXIFYING OCHRATOXIN A” (DSM Austria GmbH, priority 2021, published 2024)

How the values were obtained:
[1] = OTA detoxification activity assay (specific activity, fluorescence reduction ex/em 390/450 nm); format: biochemical; conditions: SEQ ID NO: 1 = 100%
How it was run: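 Recombinant enzyme preparation with 200 ng/mL OTA in 100 mM sodium phosphate, at pH 6.0 and pH 7.5, 37° C. Degradation followed as the fall in fluorescence at ex/em 390/450 nm. Specific activity taken from the initial linear slope; one unit degrades 1 μmol OTA per min at a starting OTA of […].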

[2] = Enzymatic activity comparison: activity remaining after 65° C. for 10 min at pH 6.0, relative to SEQ ID NO: 1; format: physicochemical
Experimental: To compare the temperature behavior and thermostability of selected enzymes to one another, enzyme was incubated at 65° C. for 10 min at pH 6.0. The enzymatic activity remaining after incubation was compared to the remaining activity of the enzyme of SEQ ID NO: 1 after incubation, the latter being set to 100%, see Table 16.

B1: 305 (protein)
chain: MTTRTRILTAFLSLLAANACAADAAPAAPHTVVLRAARMFDGASGKLVDHPQLTIVGNKIVRIAQGDKAEVPAGAEVVDLGDATLLPGFIDAHVHLSGQSSDNWYGDFFDNMMRFPAEQALYGAYYARITLEAGFTSVRDVGSTDWVALGLRNAIDAGKVPGPRMLVSNYAVGSTGGHADQDPVPPHKLPLMGPLQGVCNGPEECRAAVRYQIKYGANVIKFMPSGGVLSLSDPVDAPELSQDEMNAVIGESHAWGRKVAAHAHGDKAAKMAVAAGVDSIEHGSFIEDDTLRAMKAKNVYLVPTISAIAHVEEKIGTFPPVIAEKGRAAAAHLRQTFRHAVQIGVPIALGTDAGVGAHGSNAREFRYMVENGLTPAQALLAGTANAARLLGTFDRVGTLEAGKLADVVAVPGNPIADITVTERPLFVMKDGVVVRRDAVR
modifications: exemplary polypeptide
Specific OTA detoxification activities in % compared to the enzyme of SEQ ID NO: 1, pH 6.0 [1]: 36% | Specific OTA detoxification activities in % compared to the enzyme of SEQ ID NO: 1, pH 7.5 [1]: 46% | Enzymatic activity remaining after incubation, compared to SEQ ID NO: 1 (set to 100%) [2]: 35%

B2: 306 (protein)
chain: MTTRTRILTAFLSLLAANACAADAAPAAPHTVVLRAARMFDGASGKLVDHPQLTIVGNKIVRIAQGDKAEVPAGAEVVDLGDATLLPGFIDAHVHLSGQSSDNWYGDFFDNMMRFPAEQALYGAYYARITLEAGFTSVRDVGSTDWVALGLRNAIDAGKVPGPRMLVSNYAVGSTGGHADQDPIPPHKLPLAGPLQGVCNGPEECRAAVRYQIKYGANVIKFMPSGGVLSLSDPVDAPELSQDEMNAVIGESHAWGRKVAAHAHGDKAAKMAVAAGVDSIEHGSFIEDDTLRAMKAKNVYLVPTISAAAHVEEKIGTFPPVIAEKGRAALAHLRQTFRHAVQIGVPIALGTDAGVGAHGSNAREFRYMVENGLTPAQALLAGTANAARLLGTFDRVGTLEAGKLADVVAVPGNPIADITVTERPLFVMKDGVVVRRDAVR
modifications: exemplary polypeptide
Specific OTA detoxification activities in % compared to the enzyme of SEQ ID NO: 1, pH 6.0 [1]: 114% | Specific OTA detoxification activities in % compared to the enzyme of SEQ ID NO: 1, pH 7.5 [1]: 74% | Enzymatic activity remaining after incubation, compared to SEQ ID NO: 1 (set to 100%) [2]: 36%

B3: 307 (protein)
chain: MTTRTRILTAFLSLLAANACAADAAPAAPHTVVLRAARMFDGASGKLVDHPQLTIVGNKIVRIAQGDKAEVPAGAEVVDLGDATLLPGFIDAHVHLSGQSSDNWYGDFFDNMMRFPAEQALYGAYYARITLEAGFTSVRDVGSTDWVALGLRNAIDAGKVPGPRMLVSNYAVGSTGGHADQDPIPPHKLPLAGPLQGVCNGPEECRAAVRYQIKYGANVIKFMPSGGVLSLSDPVDAPELSQDEMNAVIGESHAWGRKVAAHAHGDKAAKMAVAAGVDSIEHGSFIEDDTLRAMKAKNVYLVPTISAAAHVEEKIGTFPPVIAEKGRAAMAHLRQTFRHAVQIGVPIALGTDAGVGAHGSNAREFRYMVENGLTPAQALLAGTANAARLLGTFDRVGTLEAGKLADVVAVPGNPIADITVTERPLFVMKDGVVVRRDAVR
modifications: exemplary polypeptide
Specific OTA detoxification activities in % compared to the enzyme of SEQ ID NO: 1, pH 6.0 [1]: 138% | Specific OTA detoxification activities in % compared to the enzyme of SEQ ID NO: 1, pH 7.5 [1]: 84% | Enzymatic activity remaining after incubation, compared to SEQ ID NO: 1 (set to 100%) [2]: 35%

B4: 308 (protein)
chain: MTTRTRILTAFLSLLAANACAADAAPAAPHTVVLRAARMFDGASGKLVDHPQLTIVGNKIVRIAQGDKAEVPAGAEVVDLGDATLLPGFIDAHVHLSGQSSDNWYGDFFDNMMRFPAEQALYGAYYARITLEAGFTSVRDVGSTDWVALGLRNAIDAGKVPGPRMLVSNYAVGSTGGHADQDPIPPHKLPLAGPLQGVCNGPEECRAAVRYQIKYGANVIKFMPSGGVLSLSDPVDAPELSQDEMNAVIGESHAWGRKVAAHAHGDKAAKMAVAAGVDSIEHGSFIEDDTLRAMKAKNVYLVPTISAAAHVEEKIGTFPPVIAEKGRAAVAHLRQTFRHAVQIGVPIALGTDAGVGAHGSNAREFRYMVENGLTPAQALLAGTANAARLLGTFDRVGTLEAGKLADVVAVPGNPIADITVTERPLFVMKDGVVVRRDAVR
modifications: exemplary polypeptide
Specific OTA detoxification activities in % compared to the enzyme of SEQ ID NO: 1, pH 6.0 [1]: 171% | Specific OTA detoxification activities in % compared to the enzyme of SEQ ID NO: 1, pH 7.5 [1]: 117% | Enzymatic activity remaining after incubation, compared to SEQ ID NO: 1 (set to 100%) [2]: 39%

B5: 309 (protein)
chain: MTTRTRILTAFLSLLAANACAADAAPAAPHTVVLRAARMFDGASGKLVDHPQLTIVGNKIVRIAQGDKAEVPAGAEVVDLGDATLLPGFIDAHVHLSGQSSDNWYGDFFDNMMRFPAEQALYGAYYARITLEAGFTSVRDVGSTDWVALGLRNAIDAGKVPGPRMLVSNYAVGSTGGHADQDPIPPHKLPLAGPLQGVCNGPEECRAAVRYQIKYGANVIKFMPSGGVLSLSDPVDAPELSQDEMNAVIGESHAWGRKVAAHAHGDKAAKMAVAAGVDSIEHGSFIEDDTLRAMKAKNVYLVPTISAAAHVEEKIGTFPPVIAEKGRAAAAHIRQTFRHAVQIGVPIALGTDAGVGAHGSNAREFRYMVENGLTPAQALLAGTANAARLLGTFDRVGTLEAGKLADVVAVPGNPIADITVTERPLFVMKDGVVVRRDAVR
modifications: exemplary polypeptide
Specific OTA detoxification activities in % compared to the enzyme of SEQ ID NO: 1, pH 6.0 [1]: 106% | Specific OTA detoxification activities in % compared to the enzyme of SEQ ID NO: 1, pH 7.5 [1]: 48% | Enzymatic activity remaining after incubation, compared to SEQ ID NO: 1 (set to 100%) [2]: 28%

B6: 310 (protein)
chain: MTTRTRILTAFLSLLAANACAADAAPAAPHTVVLRAARMFDGASGKLVDHPQLTIVGNKIVRIAQGDKAEVPAGAEVVDLGDATLLPGFIDAHVHLSGQSSDNWYGDFFDNMMRFPAEQALYGAYYARITLEAGFTSVRDVGSTDWVALGLRNAIDAGKVPGPRMLVSNYAVGSTGGHADQDPIPPHKLPLAGPLQGVCNGPEECRAAVRYQIKYGANVIKFMPSGGVLSLSDPVDAPELSQDEMNAVIGESHAWGRKVAAHAHGDKAAKMAVAAGVDSIEHGSFIEDDTLRAMKAKNVYLVPTISAAAHVEEKIGTFPPVIAEKGRAAAAHMRQTFRHAVQIGVPIALGTDAGVGAHGSNAREFRYMVENGLTPAQALLAGTANAARLLGTFDRVGTLEAGKLADVVAVPGNPIADITVTERPLFVMKDGVVVRRDAVR
modifications: exemplary polypeptide
Specific OTA detoxification activities in % compared to the enzyme of SEQ ID NO: 1, pH 6.0 [1]: 78% | Specific OTA detoxification activities in % compared to the enzyme of SEQ ID NO: 1, pH 7.5 [1]: 91% | Enzymatic activity remaining after incubation, compared to SEQ ID NO: 1 (set to 100%) [2]: 39%

B7: 311 (protein)
chain: MTTRTRILTAFLSLLAANACAADAAPAAPHTVVLRAARMFDGASGKLVDHPQLTIVGNKIVRIAQGDKAEVPAGAEVVDLGDATLLPGFIDAHVHLSGQSSDNWYGDFFDNMMRFPAEQALYGAYYARITLEAGFTSVRDVGSTDWVALGLRNAIDAGKVPGPRMLVSNYAVGSTGGHADQDPIPPHKLPLAGPLQGVCNGPEECRAAVRYQIKYGANVIKFMPSGGVLSLSDPVDAPELSQDEMNAVIGESHAWGRKVAAHAHGDKAAKMAVAAGVDSIEHGSFIEDDTLRAMKAKNVYLVPTISAVAHVEEKIGTFPPVIAEKGRAALAHLRQTFRHAVQIGVPIALGTDAGVGAHGSNAREFRYMVENGLTPAQALLAGTANAARLLGTFDRVGTLEAGKLADVVAVPGNPIADITVTERPLFVMKDGVVVRRDAVR
modifications: exemplary polypeptide
Specific OTA detoxification activities in % compared to the enzyme of SEQ ID NO: 1, pH 6.0 [1]: 89% | Specific OTA detoxification activities in % compared to the enzyme of SEQ ID NO: 1, pH 7.5 [1]: 48% | Enzymatic activity remaining after incubation, compared to SEQ ID NO: 1 (set to 100%) [2]: 30%

B8: 312 (protein)
chain: MTTRTRILTAFLSLLAANACAADAAPAAPHTVVLRAARMFDGASGKLVDHPQLTIVGNKIVRIAQGDKAEVPAGAEVVDLGDATLLPGFIDAHVHLSGQSSDNWYGDFFDNMMRFPAEQALYGAYYARITLEAGFTSVRDVGSTDWVALGLRNAIDAGKVPGPRMLVSNYAVGSTGGHADQDPIPPHKLPLAGPLQGVCNGPEECRAAVRYQIKYGANVIKFMPSGGVLSLSDPVDAPELSQDEMNAVIGESHAWGRKVAAHAHGDKAAKMAVAAGVDSIEHGSFIEDDTLRAMKAKNVYLVPTISAVAHVEEKIGTFPPVIAEKGRAAMAHLRQTFRHAVQIGVPIALGTDAGVGAHGSNAREFRYMVENGLTPAQALLAGTANAARLLGTFDRVGTLEAGKLADVVAVPGNPIADITVTERPLFVMKDGVVVRRDAVR
modifications: exemplary polypeptide
Specific OTA detoxification activities in % compared to the enzyme of SEQ ID NO: 1, pH 6.0 [1]: 81% | Specific OTA detoxification activities in % compared to the enzyme of SEQ ID NO: 1, pH 7.5 [1]: 64% | Enzymatic activity remaining after incubation, compared to SEQ ID NO: 1 (set to 100%) [2]: 17%

B9: 313 (protein)
chain: MTTRTRILTAFLSLLAANACAADAAPAAPHTVVLRAARMFDGASGKLVDHPQLTIVGNKIVRIAQGDKAEVPAGAEVVDLGDATLLPGFIDAHVHLSGQSSDNWYGDFFDNMMRFPAEQALYGAYYARITLEAGFTSVRDVGSTDWVALGLRNAIDAGKVPGPRMLVSNYAVGSTGGHADQDPIPPHKLPLAGPLQGVCNGPEECRAAVRYQIKYGANVIKFMPSGGVLSLSDPVDAPELSQDEMNAVIGESHAWGRKVAAHAHGDKAAKMAVAAGVDSIEHGSFIEDDTLRAMKAKNVYLVPTISAVAHVEEKIGTFPPVIAEKGRAAVAHLRQTFRHAVQIGVPIALGTDAGVGAHGSNAREFRYMVENGLTPAQALLAGTANAARLLGTFDRVGTLEAGKLADVVAVPGNPIADITVTERPLFVMKDGVVVRRDAVR
modifications: exemplary polypeptide
Specific OTA detoxification activities in % compared to the enzyme of SEQ ID NO: 1, pH 6.0 [1]: 84% | Specific OTA detoxification activities in % compared to the enzyme of SEQ ID NO: 1, pH 7.5 [1]: 54% | Enzymatic activity remaining after incubation, compared to SEQ ID NO: 1 (set to 100%) [2]: 20%

B10: 315 (protein)
chain: MTTRTRILTAFLSLLAANACAADAAPAAPHTVVLRAARMFDGASGKLVDHPQLTIVGNKIVRIAQGDKAEVPAGAEVVDLGDATLLPGFIDAHVHLSGQSSDNWYGDFFDNMMRFPAEQALYGAYYARITLEAGFTSVRDVGSTDWVALGLRNAIDAGKVPGPRMLVSNYAVGSTGGHADQDPIPPHKLPLAGPLQGVCNGPEECRAAVRYQIKYGANVIKFMPSGGVLSLSDPVDAPELSQDEMNAVIGESHAWGRKVAAHAHGDKAAKMAVAAGVDSIEHGSFIEDDTLRAMKAKNVYLVPTISAVAHVEEKIGTFPPVIAEKGRAAAAHMRQTFRHAVQIGVPIALGTDAGVGAHGSNAREFRYMVENGLTPAQALLAGTANAARLLGTFDRVGTLEAGKLADVVAVPGNPIADITVTERPLFVMKDGVVVRRDAVR
modifications: exemplary polypeptide
Specific OTA detoxification activities in % compared to the enzyme of SEQ ID NO: 1, pH 6.0 [1]: 38% | Specific OTA detoxification activities in % compared to the enzyme of SEQ ID NO: 1, pH 7.5 [1]: 56% | Enzymatic activity remaining after incubation, compared to SEQ ID NO: 1 (set to 100%) [2]: 29%
